These results are taken from publication PMC5042579.

Assay [1] addresses biotinylated EB1 (mouse end-binding protein 1) (mouse) (UniProt Q61166). The experiment in a line: pull-down.
Assay [2] concerns the target microtubules of tubulin purified from bovine brain (bovine) (UniProt Q6B856). Nature of the assay: co-sedimentation. Conditions: scale: molecule per 100 dimers of polymerized tubulin.
Assay [3] deals with GFP-EB1 (human) (human) (UniProt Q15691). The experiment in a line: TIRF microscopy of reconstituted dynamic microtubules.
Chain of GFP-EB1 (human) (human) (Q15691 whole entry): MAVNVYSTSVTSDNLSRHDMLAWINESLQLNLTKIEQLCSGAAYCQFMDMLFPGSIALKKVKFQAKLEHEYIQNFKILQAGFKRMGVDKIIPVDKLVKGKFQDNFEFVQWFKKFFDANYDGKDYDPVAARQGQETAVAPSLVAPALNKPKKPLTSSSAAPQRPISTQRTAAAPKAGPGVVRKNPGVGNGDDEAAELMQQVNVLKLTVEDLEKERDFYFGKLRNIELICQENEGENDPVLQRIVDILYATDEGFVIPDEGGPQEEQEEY

Chain of biotinylated EB1 (mouse end-binding protein 1) (mouse) (Q61166 whole entry): as the sequence (Q15691 whole entry) above, with D123E, N147S, T154G, S157T, S165A, A170T, V179M, N201K counted along it

In turn, “S262E-tau (phosphomimetic tau, serine 262 replaced by glutamate) (natural protein)” gave a percent bound to EB1 compared with tau in assay [1] of 50.1%. The substance further yielded a tau molecules bound per 100 dimers of polymerized tubulin in assay [2] of 1.
“P2R′-tau (tau fragment from P2 to R′) (from UniProt P10636-7 169-371) (domain or fragment)” gave a GFP-EB1 comet intensity at microtubule ends with 75 nM tau protein in assay [3] of 7 a.u.
